In patent publication US20060099689:

Tests used:
TRX-EK-mIL15 = molecular target: T1, TRX-EK-mIL15 (UniProt P48346)
T1 sequence: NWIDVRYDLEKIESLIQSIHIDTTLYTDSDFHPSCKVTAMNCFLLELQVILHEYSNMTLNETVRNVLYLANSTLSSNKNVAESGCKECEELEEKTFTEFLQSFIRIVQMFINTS

[1] = system: TRX-EK-hIFNa [thioredoxin: P0AA25]
H-GST-T-mLIF = H-GST-T-mLIF (UniProt P09056)
H-GST-DEVD/mLIF = H-GST-DEVD/mLIF (UniProt P09056)
H-GST-DEVD/S-mLIF = H-GST-DEVD/S-mLIF (UniProt P09056)

TRX-EK-hIFNa [thioredoxin: P0AA25], sequence (P0AA25 whole entry, looked up): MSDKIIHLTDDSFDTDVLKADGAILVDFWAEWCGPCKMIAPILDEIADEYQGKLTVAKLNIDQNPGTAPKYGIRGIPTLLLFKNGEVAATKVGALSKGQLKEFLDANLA

Enterokinase
cleavage of the fusion protein (gel, FIG. 3a) (TRX-EK-mIL15): Cleavage with enterokinase required a long incubation time in order to process the molecule. In the end, the molecule was processed
processing of the fusion protein (gel, FIG. 3b) [1]: 16 h incubation with Enterokinase resulted in only a minor amount of processing of the fusion protein

Thrombin
time needed for processing (H-GST-T-mLIF): up to 16 h were needed to process the H-GST-T-mLIF fusion protein with Thrombin

reverse Caspase-7
cleavage of the fusion protein (gel, FIG. 7) (GST-C-hIFNα): Both mLIF and hIFN alpha were cut efficiently using Either Caspase-3 or reverse Caspase-7, with either the recognition site DEVD/ or DEVD/S
cleavage of the fusion protein (gel, FIG. 7) (H-GST-DEVD/mLIF): Both mLIF and hIFN alpha were cut efficiently using Either Caspase-3 or reverse Caspase-7, with either the recognition site DEVD/ or DEVD/S
cleavage of the fusion protein (gel, FIG. 7) (H-GST-DEVD/S-mLIF): Both mLIF and hIFN alpha were cut efficiently using Either Caspase-3 or reverse Caspase-7, with either the recognition site DEVD/ or DEVD/S
